What was measured:
HLA-B*57:01 = assay: IEDB peptide-MHC binding, purified MHC/competitive/fluorescence; filed as Kd, often an IC50 or EC50 that approximates it; ≥ and ≤ were set here for values at or beyond the usual limits of such assays
HLA-B*46:01 = assay: as above
HLA-A*03:01 [1] = assay: as above
HLA-B*39:01 = assay: as above
HLA-A*02:16 = assay: as above
HLA-A*69:01 = assay: as above
HLA-A*26:01 = assay: as above
HLA-A*68:02 = assay: as above
HLA-A*02:03 = assay: as above
HLA-A*02:01 [2] = assay: as above
HLA-A*02:19 = assay: as above
HLA-A*02:12 = assay: as above
HLA-A*02:11 = assay: as above
HLA-B*27:03 = assay: as above
HLA-B*15:01 [3] = assay: as above
HLA-B*15:17 = assay: as above; details: source organism: Cryptosporidium parvum Iowa II
HLA-B*18:01 = assay: as above
HLA-A*29:02 = assay: as above
HLA-A*24:03 = assay: as above
HLA-B*51:01 = assay: as above
HLA-B*08:01 = assay: IEDB peptide-MHC binding, purified MHC/competitive/fluorescence; ≥ and ≤ were set here for values at or beyond the usual limits of such assays
HLA-B*40:01 = assay: IEDB peptide-MHC binding, purified MHC/competitive/fluorescence; filed as Kd, often an IC50 or EC50 that approximates it; ≥ and ≤ were set here for values at or beyond the usual limits of such assays
HLA-A*30:01 = assay: IEDB peptide-MHC binding, purified MHC/competitive/radioactivity; filed as Kd, often an IC50 or EC50 that approximates it; ≥ and ≤ were set here for values at or beyond the usual limits of such assays; details: source organism: Vaccinia virus WR
HLA-A*24:02 = assay: IEDB peptide-MHC binding, purified MHC/competitive/fluorescence; ≥ and ≤ were set here for values at or beyond the usual limits of such assays
HLA-B*07:02 = assay: as above
HLA-A*03:01 [4] = assay: as above; details: source organism: Zaire ebolavirus
HLA-A*11:01 = assay: as above; details: source organism: Zaire ebolavirus
HLA-B*15:01 [5] = assay: as above; details: source organism: Zaire ebolavirus
HLA-A*02:01 [6] = assay: as above; details: source organism: Zaire ebolavirus
HLA-A*01:01 = assay: IEDB peptide-MHC binding, purified MHC/direct/fluorescence; filed as Kd, often an IC50 or EC50 that approximates it; ≥ and ≤ were set here for values at or beyond the usual limits of such assays
HLA-A*80:01 = assay: as above
HLA-A*31:01 = assay: IEDB peptide-MHC binding, purified MHC/competitive/fluorescence; filed as Kd, often an IC50 or EC50 that approximates it; ≥ and ≤ were set here for values at or beyond the usual limits of such assays; details: source organism: Bacillus anthracis str. A0488
[7] = source organism: Burkholderia pseudomallei 91
[8] = source organism: Cryptosporidium parvum Iowa II
[9] = source organism: Burkholderia vietnamiensis G4
[10] = source organism: Human immunodeficiency virus 1
[11] = source organism: Listeria monocytogenes J0161
[12] = source organism: Rickettsia sibirica 246
[13] = source organism: Vaccinia virus WR
[14] = source organism: Zaire ebolavirus
[15] = source organism: Orthohantavirus andesense
[16] = source organism: Bacillus anthracis
[17] = source organism: Bacillus anthracis str. A0488
[18] = source organism: Escherichia coli E22

RAYAAMHLW showed a Kd (HLA-B*57:01; [7]) of 0.31 µM, a Kd (HLA-B*46:01; [7]) of at least 20 µM and a Kd (HLA-A*03:01 [1]; [7]) of at least 20 µM. It also gave a Kd (HLA-B*39:01; [7]) of at least 20 µM, a Kd (HLA-A*02:16; [7]) of at least 20 µM and a Kd (HLA-A*69:01; [7]) of at least 20 µM. For the same sequence, the Kd (HLA-A*26:01; [7]) was at least 20 µM, the Kd (HLA-A*68:02; [7]) was at least 20 µM and the Kd (HLA-A*02:03; [7]) was at least 20 µM. For the same sequence, the Kd (HLA-A*02:01 [2]; [7]) was at least 20 µM, the Kd (HLA-A*02:19; [7]) was at least 20 µM and the Kd (HLA-A*02:12; [7]) was at least 20 µM. The Kd (HLA-A*02:11; [7]) was at least 20 µM and the Kd (HLA-B*27:03; [7]) was at least 20 µM.

Sequence KLYLRPWWH has a Kd (HLA-B*57:01; [8]) of at least 20 µM, a Kd (HLA-B*46:01; [8]) of at least 20 µM and a Kd (HLA-A*03:01 [1]; [8]) of 0.0044 µM. It also gave a Kd (HLA-B*39:01; [8]) of at least 20 µM, a Kd (HLA-B*15:01 [3]; [8]) of at least 20 µM and a Kd (HLA-A*02:16; [8]) of at least 20 µM. For the same sequence, the Kd (HLA-A*69:01; [8]) was at least 20 µM, the Kd (HLA-B*15:17) was at least 20 µM and the Kd (HLA-B*18:01; [8]) was at least 20 µM. For the same sequence, the Kd (HLA-A*26:01; [8]) was at least 20 µM, the Kd (HLA-A*68:02; [8]) was at least 20 µM and the Kd (HLA-A*02:03; [8]) was at least 20 µM. For the same sequence, the Kd (HLA-A*29:02; [8]) was 0.683 µM, the Kd (HLA-A*24:03; [8]) was at least 20 µM and the Kd (HLA-A*02:01 [2]; [8]) was at least 20 µM. It also gave a Kd (HLA-A*02:19; [8]) of at least 20 µM, a Kd (HLA-A*02:12; [8]) of at least 20 µM and a Kd (HLA-B*51:01; [8]) of at least 20 µM. For the same sequence, the Kd (HLA-A*02:11; [8]) was at least 20 µM and the Kd (HLA-B*27:03; [8]) was at least 20 µM.

With PLFKRGWRL the Kd (HLA-B*57:01; [9]) was at least 20 µM, the Kd (HLA-B*46:01; [9]) was at least 20 µM and the Kd (HLA-A*03:01 [1]; [9]) was at least 20 µM. The Kd (HLA-B*39:01; [9]) was at least 20 µM, the Kd (HLA-B*15:01 [3]; [9]) was at least 20 µM and the Kd (HLA-B*18:01; [9]) was at least 20 µM. It also gave a Kd (HLA-A*26:01; [9]) of at least 20 µM, a Kd (HLA-A*29:02; [9]) of at least 20 µM and a Kd (HLA-A*24:03; [9]) of at least 20 µM. For the same sequence, the Kd (HLA-A*02:01 [2]; [9]) was 0.199 µM, the Kd (HLA-B*51:01; [9]) was at least 20 µM and the Kd (HLA-A*02:11; [9]) was 0.0285 µM. The Kd (HLA-B*27:03; [9]) was at least 20 µM.

In the case of FLKIKVTAA, the IC50 (HLA-B*08:01; source organism: Vaccinia virus Copenhagen) is reported as 15.6 µM.

IEIARTLTL showed a Kd (HLA-B*40:01; source organism: Salmonella enterica subsp. enterica serovar Typhi) of 0.0108 µM.

GLGQYIYET was tested, and the Kd (HLA-A*02:16; [10]) was 0.000819 µM, the Kd (HLA-A*69:01; [10]) was at least 20 µM and the Kd (HLA-A*02:03; [10]) was 0.294 µM. It also gave a Kd (HLA-A*02:01 [2]; [10]) of 0.14 µM, a Kd (HLA-A*02:19; [10]) of 0.254 µM and a Kd (HLA-A*02:12; [10]) of 0.039 µM. For the same sequence, the Kd (HLA-A*02:11; [10]) was 0.0322 µM.

YNAKRIETV showed a Kd (HLA-B*57:01; [11]) of at least 20 µM, a Kd (HLA-B*46:01; [11]) of at least 20 µM and a Kd (HLA-A*03:01 [1]; [11]) of at least 20 µM. The Kd (HLA-B*39:01; [11]) was at least 20 µM, the Kd (HLA-B*15:01 [3]; [11]) was at least 20 µM and the Kd (HLA-B*18:01; [11]) was at least 20 µM. It also gave a Kd (HLA-A*26:01; [11]) of at least 20 µM, a Kd (HLA-A*02:03; [11]) of at least 20 µM and a Kd (HLA-A*29:02; [11]) of at least 20 µM. For the same sequence, the Kd (HLA-A*24:03; [11]) was at least 20 µM, the Kd (HLA-A*02:01 [2]; [11]) was at least 20 µM and the Kd (HLA-A*02:19; [11]) was at least 20 µM. The Kd (HLA-A*02:12; [11]) was at least 20 µM, the Kd (HLA-B*51:01; [11]) was at least 20 µM and the Kd (HLA-A*02:11; [11]) was 0.239 µM. For the same sequence, the Kd (HLA-B*27:03; [11]) was at least 20 µM.

Work on YLKKLDDFY yielded a Kd (HLA-B*57:01; [12]) of at least 20 µM, a Kd (HLA-B*46:01; [12]) of at least 20 µM and a Kd (HLA-A*03:01 [1]; [12]) of at least 20 µM. The Kd (HLA-B*39:01; [12]) was at least 20 µM, the Kd (HLA-A*02:16; [12]) was at least 20 µM and the Kd (HLA-A*69:01; [12]) was at least 20 µM. For the same sequence, the Kd (HLA-B*18:01; [12]) was at least 20 µM, the Kd (HLA-A*26:01; [12]) was at least 20 µM and the Kd (HLA-A*68:02; [12]) was at least 20 µM. It also gave a Kd (HLA-A*24:03; [12]) of at least 20 µM, a Kd (HLA-A*02:01 [2]; [12]) of at least 20 µM and a Kd (HLA-A*02:19; [12]) of at least 20 µM. For the same sequence, the Kd (HLA-A*02:12; [12]) was at least 20 µM, the Kd (HLA-B*51:01; [12]) was at least 20 µM and the Kd (HLA-A*02:11; [12]) was at least 20 µM. For the same sequence, the Kd (HLA-B*27:03; [12]) was at least 20 µM.

HFKPPKFRA was tested, and the IC50 (HLA-B*08:01; source organism: Vaccinia virus) was at least 150 µM and the Kd (HLA-A*30:01) was 0.00886 µM.

With IAVARKHHT the IC50 (HLA-B*08:01; source organism: Variola virus) was at least 91.6 µM and the IC50 (HLA-A*24:02; source organism: Variola virus) was 49.4 µM.

LPKRSVMLI was tested, and the IC50 (HLA-B*08:01; [13]) was 12.9 µM, the IC50 (HLA-B*07:02; [13]) was 6.45 µM and the IC50 (HLA-A*24:02; [13]) was at least 93 µM.

With RFKRTSFFL the IC50 (HLA-A*03:01 [4]) was at least 504 µM, the IC50 (HLA-A*11:01) was at least 390 µM and the IC50 (HLA-B*15:01 [5]) was 9.58 µM. The IC50 (HLA-B*08:01; [14]) was 26.5 µM, the IC50 (HLA-B*07:02; [14]) was at least 215 µM and the IC50 (HLA-A*02:01 [6]) was at least 117 µM.

Work on HSDDALFIY yielded a Kd (HLA-A*01:01; [15]) of at least 20 µM and a Kd (HLA-A*80:01; [15]) of 16 µM.

In the case of VLRACWNEK, the Kd (HLA-A*01:01; [16]) is reported as at least 20 µM and the Kd (HLA-A*80:01; [16]) is reported as at least 20 µM.

In the case of IQKGMFVVK, the Kd (HLA-B*57:01; [17]) is reported as at least 20 µM, the Kd (HLA-B*46:01; [17]) is reported as at least 20 µM and the Kd (HLA-B*39:01; [17]) is reported as at least 20 µM. For the same sequence, the Kd (HLA-A*31:01) was 0.0158 µM, the Kd (HLA-A*02:16; [17]) was at least 20 µM and the Kd (HLA-A*69:01; [17]) was at least 20 µM. The Kd (HLA-B*18:01; [17]) was at least 20 µM, the Kd (HLA-A*26:01; [17]) was at least 20 µM and the Kd (HLA-A*68:02; [17]) was at least 20 µM. For the same sequence, the Kd (HLA-A*02:03; [17]) was at least 20 µM, the Kd (HLA-A*24:03; [17]) was at least 20 µM and the Kd (HLA-A*02:01 [2]; [17]) was at least 20 µM. For the same sequence, the Kd (HLA-A*02:19; [17]) was at least 20 µM, the Kd (HLA-A*02:12; [17]) was at least 20 µM and the Kd (HLA-B*51:01; [17]) was at least 20 µM. It also gave a Kd (HLA-A*02:11; [17]) of at least 20 µM and a Kd (HLA-B*27:03; [17]) of at least 20 µM.

For DEIAFGLKL, the Kd (HLA-B*15:01 [3]; [18]) was at least 20 µM and the Kd (HLA-B*40:01; [18]) was 3 µM.

SVHYKFVTK was tested, and the Kd (HLA-A*01:01; [16]) was at least 20 µM and the Kd (HLA-A*80:01; [16]) was at least 20 µM.
